Assay results: paper doi:10.1101/791277, “Assembly of novel, nuclear dimers of the PI3-Kinase regulatory subunits underpins the pro-proliferative activity of the Cdc42-activated tyrosine kinase, ACK” (bioRxiv, 2019)
Where no end group is shown, it is not given here. [ ]: non-standard residue; d: D form. The star is where a group is joined. 5FAM = O=C1OC2(c3ccc(O)cc3Oc3cc(O)ccc32)c2ccc(C(=O)*)cc21; pY = N[C@@H](Cc1ccc(OP(=O)(O)O)cc1)C(=O)O

Tests used:
p85α cSH2 (614-720) = biological target: T1, p85α cSH2 (614-720) (human, UniProt P27986 614-720); test: fluorescence polarisation; 5-FAM peptide at 20 nM (CD28, p85α, phospho-p85α) or 40 nM (p85β, phospho-p85β), SH2 domain titrated; 298 K; anisotropy fitted to a single site binding isotherm; details: both partners purified
T1 construct: PI3-Kinase regulatory subunit p85α, C-terminal SH2 domain, residues 614-720; also called cSH2 domain of p85α; source: E. coli, purified (glutathione-agarose, HRV 3C cleavage, S75 size exclusion)

p85β cSH2 (603-712) = biological target: T2, p85β cSH2 (603-712) (mouse, UniProt O08908 603-712); test: as above; details: both partners purified
T2 construct: PI3-Kinase regulatory subunit p85β, C-terminal SH2 domain, residues 603-712; also called cSH2 domain of p85β; source: E. coli, purified (glutathione-agarose, HRV 3C cleavage, S75 size exclusion)
T2 sequence (looked up): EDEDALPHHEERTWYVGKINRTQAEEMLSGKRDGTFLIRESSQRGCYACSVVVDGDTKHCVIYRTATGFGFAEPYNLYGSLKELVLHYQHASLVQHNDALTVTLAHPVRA

T1 sequence (P27986 614-720): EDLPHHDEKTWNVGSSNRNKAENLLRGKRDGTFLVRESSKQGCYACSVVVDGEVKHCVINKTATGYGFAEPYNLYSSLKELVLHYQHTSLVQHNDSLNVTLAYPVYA

B1: CD28 peptide, [5-FAM]-SD-[pY]-MNMTP (peptide)
peptide: 5FAM-SD[pY]MNMTP
notes: known SH2 target phosphopeptide from CD28; also called control peptide from CD28; source: synthetic peptide, bought: Biomatik
binding result (p85α cSH2 (614-720)): binds
binding result (p85β cSH2 (603-712)): binds
